This is an account of results in patent publication US20260055188A1 (SHENGHE CHINA BIOPHARMACEUTICAL, published 2026).

As usually defined, the EC50 (read off the curve) is the midpoint of the concentration-response curve. Lower therefore signals greater potency. A word on the Kd: it is the equilibrium constant for the complex coming apart. A word on the koff: it is the rate constant with which the complex falls apart. Read a low koff as a long-lived complex. The kon is the rate constant with which the complex forms. Read a low kon as slower complex formation.

The target of assay [1] is T1, Human-TNFR2-His (manufacturer: SINO, CAT: 10417-H08H) (human, UniProt P20333 23-257).
T1 construct: Bought protein; also called human TNFR2 protein; TNFR2 protein; not shown: His tag
T1 sequence (looked up): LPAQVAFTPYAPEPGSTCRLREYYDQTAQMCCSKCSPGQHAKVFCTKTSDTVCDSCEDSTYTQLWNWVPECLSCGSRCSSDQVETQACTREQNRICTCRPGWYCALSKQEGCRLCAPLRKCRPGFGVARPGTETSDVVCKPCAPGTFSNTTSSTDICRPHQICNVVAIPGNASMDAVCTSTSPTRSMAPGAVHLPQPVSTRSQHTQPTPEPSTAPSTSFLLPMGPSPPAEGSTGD
Description: flow cytometry, bridging: CHOK1-18.2 cells (human Claudin18.2) + 150 nM antibody + human TNFR2-His, anti-His FITC detection. On the procedure:
Human TNFR2 protein (SINO, CAT: 10417-H08H) was sequentially added into 96-well plate with 100 μL/well, and after mixing, the 96-well plate was incubated at 4° C. for 1 h. Pre-cooled dilution was added and washed once, centrifuged (3000 rpm, 3 min), and the supernatant was discarded, and the cells were harvested. Fluorescent secondary antibody Anti-6X-his tag antibody (FITC) (manufacturer: abcam, Cat. No.: ab1206, Lot No.: GR3420599-3) was taken and diluted at the used concentration of 1:500. 100 μL of dilution was added to the blank control group, and 100 μL of fluorescent secondary antibody dilution was added to the rest of the sample groups respectively. After incubation for 0.5 h at room temperature and 4° C. protected from light, PBS was added to wash and centrifuged (3000 rpm, 3 min) twice. After discarding the supernatant, 80 μL of the dilution was added and resuspended.
A general note: Flow cytometry measures light scatter and fluorescence of single cells or particles in a stream.

The target in assay [2] is T2, Human-B7H3 His (manufacturer: Acro, CAT: TB73-H52E2) (human, UniProt Q5ZPR3-2 29-245).
T2 construct: also called human B7H3 protein; B7H3 protein; not shown: His tag
T2 sequence (looked up): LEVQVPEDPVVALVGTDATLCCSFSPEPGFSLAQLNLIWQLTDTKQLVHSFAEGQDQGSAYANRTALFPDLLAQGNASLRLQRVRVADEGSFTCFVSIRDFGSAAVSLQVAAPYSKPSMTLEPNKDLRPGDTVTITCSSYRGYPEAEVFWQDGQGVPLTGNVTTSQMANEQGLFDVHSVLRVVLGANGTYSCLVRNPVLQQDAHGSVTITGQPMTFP
Description: ELISA: Human-B7H3 His coated (0.3 µg/mL), antibody titrated, goat anti-human IgG Fc detection, OD450 (Example 3). Here is the method: Human-B7H3 His (manufacturer: Acro, CAT: TB73-H52E2, LOT: 2052-21AXF1-YS) was diluted to 0.3 μg/mL with a coating solution (1×PBS, pH7.4), and coated into a 96-well ELISA plate at 100 μL/well overnight at 4° C. The coating solution was poured off. Each well was washed with 1×PBST at 300 μL, washed 4 times with a plate washer, and patted dry on a flat paper. It was blocked with 3% skim milk powder at 300 μL/well, and incubated at 37° C. for 1 h. The blocking solution was poured off, washed 4 times with a plate washer, and patted dry on a flat paper. Negative control and positive control were set up. […] The variable region of the antibody sequence of the positive control consists of SEQ ID NO: 1 and SEQ ID NO: 5, with the constant region of human IgG1 added (SEQ ID NO: 85 and SEQ ID NO: 86). The positive control and antibody were diluted to 10 μg/mL with 3% skim milk powder as the starting concentration, and then diluted by 3-fold gradient (11 gradients in total). A blank well was set up and only the diluent was added. It was incubated at 37° C. for 1 h at 100 μL/well. The liquid in the well was discarded, washed 4 times with a plate washer, and patted dry on a flat paper. Goat anti-human IgG Fc was diluted with 3% skim milk powder at 1:20000, and incubated at 37° C. for 1 h at 100 μL/well. It was washed 6 times with a plate washer, and patted dry on a flat paper. TMB color developing solution was added at 100 μL/well, and wrapped with aluminum foil. Color development was performed at 37° C. in the dark for 8 min. Termination solution 1M HCl was added to terminate the color development reaction at 100 μL/well. Readings were taken at 450 nm on an ELISA reader.

For assay [3], the target named is T1, Human-TNFR2-His (manufacturer: SINO, …). Description: ELISA: Human-TNFR2-His coated (0.3 µg/mL), antibody titrated, goat anti-human IgG Fc detection, OD450 (Example 2). On the procedure: Human-TNFR2-His (manufacturer: SINO, CAT: 10417-H08H, LOT: LC15NO0412) was diluted to 0.3 μg/mL with a coating solution (1×PBS, pH7.4), and coated into a 96-well ELISA plate at 100 μL/well overnight at 4° C. The coating solution was poured off. Each well was washed with 1×PBST at 300 μL, washed 4 times with a plate washer, and patted dry on a flat paper. It was blocked with 3% skim milk powder at 300 μL/well, and incubated at 37° C. for 1 h. The blocking solution was poured off, washed 4 times with a plate washer, and patted dry on a flat paper. Negative control and positive control were set up. […] The positive control and antibody were diluted to 10 μg/mL with 3% skim milk powder as the starting concentration, and then diluted by 3-fold gradient (11 gradients in total). A blank well was set up and only the diluent was added. It was incubated at 37° C. for 1 h at 100 μL/well. The liquid in the well was discarded, washed 4 times with a plate washer, and patted dry on a flat paper. Goat anti-human IgG Fc was diluted with 3% skim milk powder at 1:20000, and incubated at 37° C. for 1 h at 100 μL/well. It was washed 6 times with a plate washer, and patted dry on a flat paper. TMB color developing solution was added at 100 μL/well, and wrapped with aluminum foil. Color development was performed at 37° C. in the dark for 8 min. Termination solution 1M HCl was added to terminate the color development reaction at 100 μL/well. Readings were taken at 450 nm on an ELISA reader.
On the technique in general: In an ELISA, binding on a coated surface is turned into a signal by an enzyme label.

Assay [4] shares this target. Nature of the assay: BLI, antibody on AHC sensor, 100 nM human-TNFR2-His in solution. Here is the method:
The AHC sensor was soaked in 0.02% PBST (0.02% Tween 20, pH 7.4, 1×PBS) as a buffer for 600 s to remove the sucrose covering the sensor surface. The AHC sensor was equilibrated with 0.02% PBST (0.02% Tween 20, pH 7.4, 1×PBS) as a buffer for 60 s, the antibody in the sample plate was solidified for 300 s, and the secondary equilibration buffer was used for 180 s. 100 nM human-TNFR2-His (manufacturer: SINO, CAT: 10417-H08H, LOT: LC12SE2902) protein was bound to the antibody for 300 s and then dissociated for 600 s. After dissociation, 10 mM glycine (pH 2.0) was used as a regeneration buffer for 30 s. The sensor was regenerated with 10 mM glycine (pH 2.0).
On the technique in general: In BLI a coated tip is dipped into the sample, and binding shifts an interference pattern.

Assay [5] addresses T2, Human-B7H3 His (manufacturer: Acro, …). Description: BLI, antibody on AHC sensor, 100 nM His-tagged protein (Acro TB73-H52E2) in solution.

B1: TC-F2 (bispecific antibody, human IgG1, kappa)
light: EVQLVQSGAEVKKPGATVKISCKVSGYSITDYLLHWVQQAPGKCLEWMGWIDPEDAKTKYGQKFQSRVTITADTSTDTAYMELSSLRSEDTAVYYCAANSGTGTMDAWGQGTLVTVSSGGGGSGGGGSGGGGSDIVMTQSPATLSVSPGERATLSCKASQNVGSNVDWYQQKPGQSPRVLIYKASIRYTGIPARFSGSGSGTEFTLTISILQSEDFAVYFCMQSKSYPITFGCGTKLEIKGGGGSGGGGSGGGGSEIVMTQSPPTLSLSPGERVTLSCKSSQSLLNSGNQKNYLTWYQQKPGQAPRLLIYWASTRESSIPARFSGSGSGTDFTLTISSLQPEDFAVYYCQNNYIYPLTFGGGTKLELKRTVAAPSVFIFPPSDEQLKSGTASVVCLLNNFYPREAKVQWKVDNALQSGNSQESVTEQDSKDSTYSLSSTLTLSKADYEKHKVYACEVTHQGLSSPVTKSFNRGEC
heavy: not shown
As to B1, the “E1 Mean FITC-A” value in assay [1] turned out to be 248000.

B2: TC-A2 (bispecific antibody, human IgG1, kappa)
light: EIVMTQSPPTLSLSPGERVTLSCKSSQSLLNSGNQKNYLTWYQQKPGQAPRLLIYWASTRESSIPARFSGSGSGTDFTLTISSLQPEDFAVYYCQNNYIYPLTFGGGTKLELKRTVAAPSVFIFPPSDEQLKSGTASVVCLLNNFYPREAKVQWKVDNALQSGNSQESVTEQDSKDSTYSLSSTLTLSKADYEKHKVYACEVTHQGLSSPVTKSFNRGEC
heavy: not shown
Turning to B2, the “E1 Mean FITC-A” value in assay [1] is 217000.

B3: TC-B2 (bispecific antibody, human IgG1, kappa)
light: B2 light
heavy: not shown
With B3, the “E1 Mean FITC-A” value in assay [1] amounted to 139000.

B4: TB-A2 (bispecific antibody, human IgG4 S228P, kappa)
light: DIVMTQSPATLSVTPGDRVSLSCRASQSISDYLHWYQQKSHESPRLLIKYASQSISGIPSRFSGSGSGSDFTLSINSVEPEDVGVYYCQNGHSFPLTFGAGTKLELKRTVAAPSVFIFPPSDEQLKSGTASVVCLLNNFYPREAKVQWKVDNALQSGNSQESVTEQDSKDSTYSLSSTLTLSKADYEKHKVYACEVTHQGLSSPVTKSFNRGEC
heavy: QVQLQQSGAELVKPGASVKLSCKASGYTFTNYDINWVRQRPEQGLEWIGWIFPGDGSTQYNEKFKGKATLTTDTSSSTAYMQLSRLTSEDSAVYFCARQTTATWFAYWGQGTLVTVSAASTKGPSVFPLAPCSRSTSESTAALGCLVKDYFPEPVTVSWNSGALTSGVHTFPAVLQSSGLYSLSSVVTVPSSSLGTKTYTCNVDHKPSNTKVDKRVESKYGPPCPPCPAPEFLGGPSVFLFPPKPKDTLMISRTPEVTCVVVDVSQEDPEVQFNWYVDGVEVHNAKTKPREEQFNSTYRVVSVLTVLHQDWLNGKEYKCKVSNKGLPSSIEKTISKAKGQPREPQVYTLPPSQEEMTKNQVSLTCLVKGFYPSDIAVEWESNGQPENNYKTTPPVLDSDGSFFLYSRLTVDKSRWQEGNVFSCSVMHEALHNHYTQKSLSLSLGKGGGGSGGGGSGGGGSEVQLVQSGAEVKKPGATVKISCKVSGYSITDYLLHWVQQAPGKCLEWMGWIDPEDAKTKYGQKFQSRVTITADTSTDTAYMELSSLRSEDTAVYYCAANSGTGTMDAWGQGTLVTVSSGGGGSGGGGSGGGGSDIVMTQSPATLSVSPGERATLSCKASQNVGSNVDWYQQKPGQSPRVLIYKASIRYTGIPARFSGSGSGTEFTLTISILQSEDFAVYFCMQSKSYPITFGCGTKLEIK
notes: also called antibody TB-A2
For B4, the “EC50 (read off the curve)” value in assay [2] is roughly 0.7 nM. Also, the binding result in assay [3] was “binds”.

B5: TB-D1 (bispecific antibody, human IgG1, kappa)
light: B4 light
heavy: not shown
notes: also called antibody TB-D1
In assay [4], B5 gave a Kd of 1.35 nM, a koff of 0.000531 s⁻¹ and a kon of 394000 M⁻¹ s⁻¹. In assay [5], this molecule registered a Kd of 9.45 nM, a koff of 0.000311 s⁻¹ and a kon of 33000 M⁻¹ s⁻¹. In addition, the “EC50 (read off the curve)” value in assay [2] is roughly 0.2 µg/mL.

B6: TB-B (bispecific antibody, human IgG1, kappa)
light: B4 light
heavy: not shown
notes: also called antibody TB-B
Turning to B6, the “EC50 (read off the curve)” value in assay [2] is roughly 0.2 µg/mL. In addition, the binding result in assay [3] is given as “binds”.

B7: TB-A1 (bispecific antibody, human IgG1, kappa)
light: B4 light
heavy: not shown
notes: also called antibody TB-A1
B7: in assay [4], the dissociation constant (Kd) amounted to 0.234 nM, the koff was found to be 5.22e-05 s⁻¹ and the association rate constant (kon) is 223000 M⁻¹ s⁻¹. In assay [5], this molecule came in with a dissociation constant (Kd) of 22 nM, a koff of 0.000894 s⁻¹ and a kon of 40700 M⁻¹ s⁻¹.

B8: TC-E2 (bispecific antibody, human IgG1, kappa)
light: EIVMTQSPPTLSLSPGERVTLSCKSSQSLLNSGNQKNYLTWYQQKPGQAPRLLIYWASTRESSIPARFSGSGSGTDFTLTISSLQPEDFAVYYCQNNYIYPLTFGGGTKLELKRTVAAPSVFIFPPSDEQLKSGTASVVCLLNNFYPREAKVQWKVDNALQSGNSQESVTEQDSKDSTYSLSSTLTLSKADYEKHKVYACEVTHQGLSSPVTKSFNRGECGGGGSGGGGSEVQLVQSGAEVKKPGATVKISCKVSGYSITDYLLHWVQQAPGKCLEWMGWIDPEDAKTKYGQKFQSRVTITADTSTDTAYMELSSLRSEDTAVYYCAANSGTGTMDAWGQGTLVTVSSGGGGSGGGGSGGGGSDIVMTQSPATLSVSPGERATLSCKASQNVGSNVDWYQQKPGQSPRVLIYKASIRYTGIPARFSGSGSGTEFTLTISILQSEDFAVYFCMQSKSYPITFGCGTKLEIK
heavy: not shown
As to B8, the “E1 Mean FITC-A” value in assay [1] was 260000.

B9: TB-E (bispecific antibody, human IgG1, kappa)
light: DIVMTQSPATLSVTPGDRVSLSCRASQSISDYLHWYQQKSHESPRLLIKYASQSISGIPSRFSGSGSGSDFTLSINSVEPEDVGVYYCQNGHSFPLTFGAGTKLELKRTVAAPSVFIFPPSDEQLKSGTASVVCLLNNFYPREAKVQWKVDNALQSGNSQESVTEQDSKDSTYSLSSTLTLSKADYEKHKVYACEVTHQGLSSPVTKSFNRGECGGGGSGGGGSEVQLVQSGAEVKKPGATVKISCKVSGYSITDYLLHWVQQAPGKCLEWMGWIDPEDAKTKYGQKFQSRVTITADTSTDTAYMELSSLRSEDTAVYYCAANSGTGTMDAWGQGTLVTVSSGGGGSGGGGSGGGGSDIVMTQSPATLSVSPGERATLSCKASQNVGSNVDWYQQKPGQSPRVLIYKASIRYTGIPARFSGSGSGTEFTLTISILQSEDFAVYFCMQSKSYPITFGCGTKLEIK
heavy: not shown
notes: also called antibody TB-E
Regarding B9, the binding result in assay [3] is “binds”.
